Read-outs that look alike come from different tables or passages of the source.
Experiments:
[1] = target: the molecule itself; assay: zonal velocity sedimentation in a glycerol gradient
[2] = target: the molecule itself; assay: as above; remark: listed apart in the source

B1: full-length Mycobacterium smegmatis polynucleotide phosphorylase (PNPase) (enzyme, UniProt A0QVQ5 1-763, looked up)
chain: MSVVELEDGVYESTAVIDNGSFGTRTIRFETGRLAQQAAGSAVAYLDDETMLLSATTASKNPKDHFDFFPLTVDVEERMYAAGRIPGSFFRREGRPSTDAILTCRLIDRPLRPSFVDGLRNEIQVVVTVMSLDPKDLYDVLAINAASMSTQLAGLPFSGPVGGARIALIDGTWVAFPTVEQLERAVFDMVVAGRIVGDGDSADVAIMMVEAEATENVVELVAGGAQAPTEAVVAEGLEAAKPFIKALCAAQQELADRAAKPAGEYPVFPDYEADVYDAVASVATEALAEALTIAGKTERNDRTDEIKVEVLERLAEPYAGREKEIGAAFRSLTKKLVRQRILTDHFRIDGRGITDIRALSAEVAVIPRAHGSALFERGETQILGVTTLDMIKMAQQIDSLGPENTKRYMHHYNFPPYSTGETGRVGSPKRREIGHGALAERALVPVLPSIEEFPYAIRQVSEALGSNGSTSMGSVCASTLALLNAGVPLKAPVAGIAMGLVSDDVDVDGKVEKRYVALTDILGAEDAFGDMDFKVAGTKDFVTALQLDTKLDGIPSQVLAGALSQAKDARLTILDVMAEAIDRPDEMSPYAPRITTIKVPVDKIGEVIGPKGKMINSITEETGAQISIEDDGTVFVGAADGLSAQAAIDKINAIANPQLPKVGERFLGTVVKTTDFGAFVSLLPGRDGLVHISKLGKGKRIAKVEDVVKVGDKLRVEIADIDNRGKISLVLVAEESAESAESAGDKGAEKAEGAAADVTPAEA
- stoichiometry N [1]: 3

B2: M. smegmatis PNPase-(1-591) lacking the KH and S1 domains (domain or fragment, Mycobacterium smegmatis, UniProt A0QVQ5 1-591, looked up)
chain: MSVVELEDGVYESTAVIDNGSFGTRTIRFETGRLAQQAAGSAVAYLDDETMLLSATTASKNPKDHFDFFPLTVDVEERMYAAGRIPGSFFRREGRPSTDAILTCRLIDRPLRPSFVDGLRNEIQVVVTVMSLDPKDLYDVLAINAASMSTQLAGLPFSGPVGGARIALIDGTWVAFPTVEQLERAVFDMVVAGRIVGDGDSADVAIMMVEAEATENVVELVAGGAQAPTEAVVAEGLEAAKPFIKALCAAQQELADRAAKPAGEYPVFPDYEADVYDAVASVATEALAEALTIAGKTERNDRTDEIKVEVLERLAEPYAGREKEIGAAFRSLTKKLVRQRILTDHFRIDGRGITDIRALSAEVAVIPRAHGSALFERGETQILGVTTLDMIKMAQQIDSLGPENTKRYMHHYNFPPYSTGETGRVGSPKRREIGHGALAERALVPVLPSIEEFPYAIRQVSEALGSNGSTSMGSVCASTLALLNAGVPLKAPVAGIAMGLVSDDVDVDGKVEKRYVALTDILGAEDAFGDMDFKVAGTKDFVTALQLDTKLDGIPSQVLAGALSQAKDARLTILDVMAEAIDRPDEMSPYA
- binding result [2]: binds

B3: M. smegmatis PNPase-(1-656) lacking the S1 domain (domain or fragment, Mycobacterium smegmatis, UniProt A0QVQ5 1-656, looked up)
chain: MSVVELEDGVYESTAVIDNGSFGTRTIRFETGRLAQQAAGSAVAYLDDETMLLSATTASKNPKDHFDFFPLTVDVEERMYAAGRIPGSFFRREGRPSTDAILTCRLIDRPLRPSFVDGLRNEIQVVVTVMSLDPKDLYDVLAINAASMSTQLAGLPFSGPVGGARIALIDGTWVAFPTVEQLERAVFDMVVAGRIVGDGDSADVAIMMVEAEATENVVELVAGGAQAPTEAVVAEGLEAAKPFIKALCAAQQELADRAAKPAGEYPVFPDYEADVYDAVASVATEALAEALTIAGKTERNDRTDEIKVEVLERLAEPYAGREKEIGAAFRSLTKKLVRQRILTDHFRIDGRGITDIRALSAEVAVIPRAHGSALFERGETQILGVTTLDMIKMAQQIDSLGPENTKRYMHHYNFPPYSTGETGRVGSPKRREIGHGALAERALVPVLPSIEEFPYAIRQVSEALGSNGSTSMGSVCASTLALLNAGVPLKAPVAGIAMGLVSDDVDVDGKVEKRYVALTDILGAEDAFGDMDFKVAGTKDFVTALQLDTKLDGIPSQVLAGALSQAKDARLTILDVMAEAIDRPDEMSPYAPRITTIKVPVDKIGEVIGPKGKMINSITEETGAQISIEDDGTVFVGAADGLSAQAAIDKINAIAN
- stoichiometry N [2]: 1 to 3
